Assay results published in patent publication US20210032331A1 (PHANES THERAPEUTICS, published 2021).

T1: human LAG-3(ECD)-mFc (human, UniProt P18627 23-450)
T1 construct: also called hLAG3-mFc; human LAG-3 extracellular domain (ECD) fused to mouse Fc; not shown: mouse Fc
T1 sequence: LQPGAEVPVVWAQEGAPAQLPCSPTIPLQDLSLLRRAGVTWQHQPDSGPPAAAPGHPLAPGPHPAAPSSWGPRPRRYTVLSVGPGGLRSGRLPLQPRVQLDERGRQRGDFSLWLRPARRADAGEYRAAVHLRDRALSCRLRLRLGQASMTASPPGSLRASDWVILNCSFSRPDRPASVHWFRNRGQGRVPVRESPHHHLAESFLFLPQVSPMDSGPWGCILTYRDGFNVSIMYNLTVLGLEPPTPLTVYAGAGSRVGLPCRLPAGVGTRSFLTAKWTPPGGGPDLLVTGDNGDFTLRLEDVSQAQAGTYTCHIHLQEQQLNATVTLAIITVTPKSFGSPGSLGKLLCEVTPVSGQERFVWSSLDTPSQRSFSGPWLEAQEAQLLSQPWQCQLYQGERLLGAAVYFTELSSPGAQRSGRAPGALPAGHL


Columns and labels:
[1] = molecular target: T2, B12 (human IgG1 heavy chain and kappa light chain chimeric); assay: ELISA peptide competition: peptide preincubated with chimeric IgG1 B12, competitor hLAG3-mFc; peptide at 600-fold hLAG3-mFc; capture on anti-human IgG, anti-mouse IgG-HRP
T2 construct: Chimeric: mouse VH and VL with human IgG1 heavy chain and kappa light chain constant regions
T2 sequence (VH, as listed by the source): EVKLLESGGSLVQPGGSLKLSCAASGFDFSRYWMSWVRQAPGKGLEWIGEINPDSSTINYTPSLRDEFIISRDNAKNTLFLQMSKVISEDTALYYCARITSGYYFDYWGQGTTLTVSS
Description: (§1) FIGS. 5A-5D show the effect of competition peptides on LAG-3 binding to anti-LAG-3 mAbs. […] B5/IgG4 was preincubated with a competition peptide for 30 minutes. Then human LAG-3 extracellular domain (ECD) fused to mouse Fc (hLAG3-mFc) was added (the final peptide concentration was 600-fold that of hLAG3-mFc) and the mixture was incubated for 60 minutes before being added to an ELISA plate coated with anti-human IgG. The incubation was carried out at 4° C. overnight. After washing, the hLAG3-mFc bound to the immobilized B5/IgG4 on the ELISA plate was detected by adding anti-mouse IgG conjugated to horseradish peroxidase (HRP) and incubating for 60 minutes. Then, after washing, the ELISA was developed using One-step Detection Solution and measured as the absorbance at 450 nm.
(§2) Anti-human IgG in carbonate coating buffer was coated on an ELISA plate at 4° C. (50 μL/well at 1 μg/mL) overnight. In each well of a separate plate, a chimeric version of a given anti-LAG-3 mAb (50 μL/well at 1.4 nM) and a competition peptide (50 μL/well at various concentrations as indicated in the figures) were mixed and incubated for 30 minutes at room temperature. Then human LAG-3 extracellular domain (ECD) fused to mouse Fc (hLAG3-mFc) was added to each well (50 μL/well at 2 nM) and the final mixture was incubated at room temperature for 60 minutes before added to the ELISA plate (50 μL/well) for another 60-minute incubation. The final incubation after adding the mixture to the ELISA plate was also performed at 4° C. overnight in some assays. The plate was washed and the binding of hLAG3-mFc to the immobilized anti-LAG-3 mAb was detected by adding anti-mouse IgG conjugated to horseradish peroxidase ([…]) (ThermoFisher Scientific, Cat#: A16084; Waltham, Mass.) and incubating for 60 minutes.

human LAG-3(ECD)-mFc [2] = molecular target: T1, human LAG-3(ECD)-mFc; assay: FACS blocking assay: mAb preincubated with LAG-3(ECD)-mFc (1 µg/mL), blocked ligand MHC class II on Daudi cells, PE anti-mouse Fc
Description: FIGS. 4A-4D show inhibition of human LAG-3 binding to MHC class II molecules by select anti-LAG-3 mAbs. An in vitro binding assay was performed using recombinant LAG-3(ECD)-mFc and Daudi cells which express human MHC class II molecules. […] The binding of LAG-3(ECD)-mFc to Daudi cells in the presence of anti-LAG-3 mAbs or a control mAb was analyzed by FACS.
(§3) Human Daudi cells were cultured in RPMI+10% FBS. Human LAG-3(ECD)-mFc protein (human LAG-3 ECD fused to mouse Fc) at 1 μg/ml final concentration was incubated with purified mouse, humanized, or chimeric anti-LAG-3 mAbs at various concentrations for 15 minutes at 4° C. The mixture was then added to 100,000 human Daudi cells in a 96-well round bottom plate, mixed and incubated for 15 minutes on ice. Cells were then centrifuged at 1,000 rpm for 5 minutes and washed with FACS buffer (PBS supplemented with 5% BSA) three times. The cells were then incubated with PE-conjugated goat anti-mouse Fc polyclonal antibodies on ice for 15 minutes, washed with FACS buffer three times and then resuspended in FACS buffer containing 0.1 μg/ml PI (propidine iodine) for live/dead cell gating. Cells were then run through the FACS Caliber instrument and the data were analyzed by the Flowjo software. Results of the inhibition of LAG-3 binding to Daudi cells by chimeric mAbs B1C, B3C, B4C, BSC, B9C, and B11C are shown in FIG. 4B.

B5/IgG4 = molecular target: T3, B5/IgG4; assay: ELISA peptide competition: peptide preincubated with B5/IgG4, competitor hLAG3-mFc; peptide at 600-fold hLAG3-mFc; capture on anti-human IgG, anti-mouse IgG-HRP
T3 construct: Chimeric: mouse VH and VL with human IgG4 heavy chain and kappa light chain constant regions; also called B5 (human IgG4 heavy chain and kappa light chain chimeric)
Description: as §1, §2

human LAG-3(ECD)-mFc [3] = molecular target: T1, human LAG-3(ECD)-mFc; assay: FACS competition: mAb preincubated with human LAG-3(ECD)-mFc (1 ug/ml); binding to MHC class II on Daudi cells detected with anti-mouse Fc-PE
Description: as §3
The mouse anti-hLAG-3 mAbs B5 and B7 were humanized to reduce the potential of immunogenicity when used in human patients. The CDRs in both the heavy and light chains of the mouse mAb were grafted into human framework that have the highest possibility of maintaining the proper structure required for antigen binding. Backmutations from human reside to mouse residue were designed when necessary. The sequences of the humanized VH and VL regions are shown in Table 11 and Table 12, respectively. The humanized VH and VL regions were fused to the constant regions of human IgG4 heavy chain and kappa light chain, respectively, to generate humanized mAbs. Constructs corresponding to the mAb sequences were used for transient transfection in 293E cells. Purified mAbs were analyzed for their ability to inhibit hLAG-3 binding to MHC class II molecules on Daudi cells.

Row | binding result [1] | binding result (B5/IgG4) | IC50 (read off the curve) (human LAG-3(ECD)-mFc [2]) | Binder | further results
1 | binds | – | – | GPPAAAPGHPLAPGPHPAA (also called peptide 1-19) [1-19] | –
2 | – | – | – | B15 (antibody, V domains shown, Mouse mAb from hybridoma; also called mouse anti-LAG-3 mAb B15) VH: EVQLQQSGAELVRPGASVKLSCTASGFNIKDDYMFWVKQRPEQGLEWIGWIDPENGDTEYASKFQGKATITADTSSNTAYLQLSSLTSEDTAVYYCTLYAYWGQGTLVTVSA VL: not shown | binding result (human LAG-3(ECD)-mFc [2]): binds
3 | – | binds | – | PPAAAPGHPLA (also called peptide 2-12) [2-12] | –
4 | binds | binds | – | QPDSGPPAAAPGHPLAP (also called peptide Q17) [Q17] | –
5 | – | – | ~1 nM | BG29 (human IgG4 heavy chain and kappa light chain chimeric) (antibody, V domains shown, Chimeric: mouse VH and VL with human IgG4 heavy chain and kappa light chain constant regions; also called chimeric BG29) VH: QIQLQQSGPEVVKPGASVRISCKASGYTFSDYHINWVKQKPGQGLEWIGWIYPGRGDPEYNEKFKGKATLTVDRSASTAYMQLSSLTSEDTSVYFCEIYYGNYIDYWGQGTTLTVSS VL: DIVMTQAAPSVPVTPGESVSISCRSSKSLLHSDGKTYLYWFLQRPGQSPQRLIYYMSNLASGVPDRFSGRGSGTDFTLRISRVEAEDVGVYYCMQSLEYPWTFGGGTKLEIK | –
6 | binds | binds | – | DSGPPAAAPGHPLAP (also called peptide D15) [D15] | –
7 | – | – | ~0.3 µg/mL | B7C (antibody, V domains shown, Chimeric: mouse VH and VL fused to constant regions of human IgG1 heavy chain and kappa light chain; also called the chimeric version of mouse mAb B7) VH: EFQLQQSGPELVKPGASVKISCKASGYSFSDYNLNWVKQSNGKTLEWIGLINLDSAATVYNQKFKGKATLTIDQSSTTAYMQLNSLTSDDSAVYYCASYDYWGQGTTLTVSS VL: DIQMTQSPSSLSASLGERVSLSCRASQDISHYLNWFQQKPDGTFKRLIYETSTLDFGVPKRFSGSRSGSDYSLTIGSLESEDFADYYCLQYATYPLTFGAGTKLELK | –
8 | – | – | ~0.3 µg/mL | B10C (antibody, V domains shown, Chimeric: mouse VH and VL fused to constant regions of human IgG1 heavy chain and kappa light chain; also called the chimeric version of mouse mAb B10) VH: EFQLQQSGPELVKPGASVKISCKASGYSFTDYNLNWVKESNGKSLEWIGLITLDYGTTIYNQKFKGKATLTVDQSSSIAYMQLNSLTSDDSAVYYCACYDYWGQGTTLTVSS VL: DIQMTQSPSSLSASLGERVSLTCRASQDISNYLNWFQQKPDGTFKRLIYATSTLDFGVPKRFSGSRSGSDYSLTISSLESEDFADYYCLQYASYPLTFGAGTKLELK | –
9 | – | – | ~0.06 µg/mL | B9C (antibody, V domains shown, Chimeric: mouse VH and VL fused to constant regions of human IgG1 heavy chain and kappa light chain; also called the chimeric version of mouse mAb B9) VH: EVQLRQSGPVLVKPGASVKMSCKASGYTFTGYYMNWVKQSHGKSLEWLAVINPYNGDTAYNRKFKGRATLTVDKSSSTAYMELNRLTSEDSAVYYCVRDDGYHVRYFDVWGTGTTVTVSS VL: DIQMTQSPSSLSASLGERVSLTCRASQDISDSLCWLQQKPDGTIKRLIYSTSTLDSGVPKRFSGSRSGSDYSLTISSLESEDFADYYCLQYASSPPTFGGGTKLEIK | –
10 | – | – | ~0.1 µg/mL | B11C (antibody, V domains shown, Chimeric: mouse VH and VL fused to constant regions of human IgG1 heavy chain and kappa light chain; also called the chimeric version of mouse mAb B11) VH: EVQLQQSGPVLVRPGASVKMSCKASGYTFTNYYMNWVKQSHGKSLEWIGVINPYNGDIAYSQKFKGKATLTVDKSSSTAYMELKSLTSEDSAVYYCARDDGYYVYYFDCWGQGTTLTVSS VL: DIQMTQSPSSLSASLGERVSLTCRASQDIGGSLNWLQQKPDGTIKRLIYSTSTLDSGVPKRFSGSRSGSDYSLTISSLESEDFADYYCLQNANSPPTFGGGTKLEIK | –
11 | – | – | ~0.4 µg/mL | B3C (antibody, V domains shown, Chimeric: mouse VH and VL fused to constant regions of human IgG1 heavy chain and kappa light chain; also called the chimeric version of mouse mAb B3; B3 (human IgG1 heavy chain and kappa light chain chimeric)) VH: QVQLQQPGAELLKPGASVKMSCKASGYTFTSYDIHWLKQTPGQGLEWIGAIYPENGDSSYSQKFKDKATLTADKSSNTAYIHLSSLTSEDSAVYYCARGGYYDYVWFPYWGQGTLVTVSA VL: DVVMTQTPLSLPVSLGDQASISCRSSQSILYSNGYTYLEWYLQKPGQSPKLLIYGVSNRFSGVPDRFSGSGSGTDFTLKISRVESEDMGVYYCFQGTHVPLTFGAGTKLELK | –
12 | – | – | ~0.4 µg/mL | B4C (antibody, V domains shown, Chimeric: mouse VH and VL fused to constant regions of human IgG1 heavy chain and kappa light chain; also called the chimeric version of mouse mAb B4; B4 (human IgG1 heavy chain and kappa light chain chimeric)) VH: QVQLQQPGAELLKPGASVKMSCKASGYTFTSYDIHWLKQTPGQGLEWIGAIYPENGDSSYSQKFKGKATLTADKSSNTAYIHLSSLTSEDSAVYYCARGGYFDYVWFPYWGQGTLVTVSA VL: DVVMTQTPLSLPVSLGDQASISCRSSQSIVYSNGYTYLEWYLQKPGQSPKLLIYGVSNRFSGVPDRFSGSGSGTDFTLKISRVEAEDMGVYYCFQGTHVPLTFGAGTKLELK | –
13 | – | – | ~0.4 µg/mL | B1C (antibody, V domains shown, Chimeric: mouse VH and VL fused to constant regions of human IgG1 heavy chain and kappa light chain; also called the chimeric version of mouse mAb B1) VH: DVQLQESGPGLVKPSQSLSLTCTVTGYSITSDYAWNWIRQFPGNKLEWMGYIDYSGITSYNPSLKSRISITRDTSKNQFFLQLNSVTTEDTATYYCAREDHYDLAWFAYWGQGTLVTVSA VL: DIQMTQTTSSLSASLGDRVTISCRASQDISNYLNWYQQKPDGTVKLLIYYTSRLHSGVPSRFSGSGSGTDYSLTISNLEPEDIATYYCHQYSNRPPTFGGGTKLEIK | –
14 | binds | binds | – | SGPPAAAPGHPLAP (also called peptide S14) [S14] | –
15 | – | – | – | B7(H6L8) (antibody, V domains shown, Humanized VH and VL fused to constant regions of human IgG4 heavy chain and kappa light chain; also called humanized B7 with B7/H6 heavy chain and B7/L8 light chain) VH: EFQLVQSGAEVKKPGASVKVSCKASGYSFSDYNLNWVRQAPGQTLEWMGLINLDSAATVYNQKFKGKATMTIDQSTSTAYMELSSLRSEDTAVYYCASYDYWGQGTLVTVSS VL: DIQMTQSPSSLSASVGDRVTITCRASQDISHYLNWFQQKPGKAPKRLIYETSTLDFGVPSRFSGSGSGTDFTFTISSLQPEDIATYYCLQYATYPLTFGGGTKVEIK | IC50 (human LAG-3(ECD)-mFc [3]): 1.19 nM
16 | binds | binds | – | PDSGPPAAAPGHPLAP (also called peptide P16) [P16] | –
17 | binds | binds | – | QPDSGPPAAAPGHPLA (also called peptide Q16) [Q16] | –
